The record followed here is article PMC7665024, “Anti-apoptotic BCL-2 regulation by changes in dynamics of its long unstructured loop” (Communications Biology, 2020).

For data set [1], the system named is BAX-induced MOMP, isolated mitochondria. Put plainly: In vitro cytochrome c release assay, isolated mitochondria (BCL-2 mutants). In kind it is biochemical, mouse. The conditions noted are these: Bax+BimBH3 = 100, mean of n = 6. The source says:
To verify this implication, we performed in vitro cytochrome c release assay using isolated mitochondria. […] Lane 3 (Fig. 2a) is a positive control for the cytochrome c release assays. […] (More experimental results in support of the observed BCL-2 activity are given in Supplementary Fig. 3.)
Fig. 2 In vitro assays for evaluating BCL-2 activity. a Cytochrome c release assay with various BCL-2 mutants at varying concentrations. All of the release amounts are normalized to the result caused by the BimBH3-induced BAX activation (lane 3). […] GUVs provide a MOM-like environment devoid of endogenous mitochondrial proteins.
A Dounce homogenizer was used with 20 strokes to homogenize mouse liver tissue (0.2 mg). The mitochondria fraction was separated using centrifugation according to the Mitochondria Isolation Kit (Thermo Scientific). Mitochondria Assay Buffer A (MAB A) (200 mM mannitol, 68 mM sucrose, 10 mM HEPES, 110 mM KCl, 1 mM EDTA, […], 0.1% BSA, protease inhibitor) was used to wash the mitochondria fraction, followed by centrifugation at 12,000 × g. The pellet was collected and resuspended using enough MAB B (i.e., MBA A without 0.1% BSA) and then quantified by bradford assay (Bio-Rad) to yield a final protein content of the mitochondrial fraction ~3 mg/mL. The final mitochondria fraction was placed on ice for further downstream processing or stored at −80 °C with additional 300 mM trehalose for future use[38]. […] The mixture was then incubated with BAX (0.1 μM) and 10 μL of the mitochondrial fraction ([…]) for 0.5 h at 37 °C. Final volume was adjusted to 30 μL. Following centrifugation at 12,000×g for 10 min, the supernatant was subjected to subsequent immunoblotting (IB). Quantification of IB was done using ImageJ software (version 1.49, NIH). The fraction of cytochrome c released (%) is calculated by (I–I0)/(Imax–I0)×100%, where Imax and I0 are the analyzed intensities of cytochrome c with and without activated BAX, respectively.
Samples were resolved by SDS–PAGE (15%) and electroblotted onto a 0.45 μm PVDF membrane (GE Healthcare). Primary antibodies used in this study included rabbit anti-BAX N20 (Santa Cruz Biotechnology), mouse anti-BCL-2(C2) (Santa Cruz Biotechnology) and mouse anti-cytochrome c antibodies (clone 7H8.2C12, Millipore). Detection was achieved using sheep anti-mouse IgG HRP (GE Healthcare) and donkey anti-rabbit IgG HRP (GE Healthcare) secondary antibodies. Proteins were visualized by 4CN Plus Chromogenic Substrate (PerkinElmer).

A further data set relates to trypsin. The data set is described as follows: Limited proteolysis by trypsin. The following applies: BCL-2 20 μM, trypsin 0.04-9.44 μM, 1 h, room temperature, SDS-PAGE. Here is the method:
Fig. 3 Structural differences between WT and EEE. a An illustration of mutation sites prepared for spin-labeling ESR studies. b Distance distributions of various double-spin-labeled BCL-2 (WT or EEE) mutants are determined from the experimental DEER data. […] As highlighted, the displacements of α1 and α2 account for the major differences. d An illustration highlighting the positions of α2–α7 and the binding groove. Structures of WT and EEE are colored as in c. Helices α4–α7 change little between the WT and EEE. The displacement of α2 is critical to the change in the local environment of the binding groove. e Limited proteolysis of BCL-2 (20 μM) analyzed on SDS–PAGE. Trypsin concentrations were 0.04, 0.11, 0.34, 1.03, 3.11, 9.44 μM. Incubation time was 1 h at room temperature. It confirms that tertiary conformations of WT versus EEE are indeed different.
BCL-2 conformational change was assessed by limited proteolysis using trypsin (MERCK). In brief, 5 µg BCL-2 (WT or EEE) was digested at enzyme/substrate ratios ranging from 1:2 to 1:461 for 1 h at room temperature. Proteolysis was quenched by adding 1 mM PMSF, and then samples were confirmed by SDS–PAGE with Coomassie blue staining.

Data set [2] relates to BCL-2 EEE (T69E/S70E/S87E; EEE-PB). Put plainly: FRET association with Pacific Blue-labeled BCL-2 EEE. The conditions noted are these: Fig. 1d.
Data set [3] deals with BAX. The data set is described as follows: FRAP-GUV pore-forming activity of BAX, 70-kDa F-dextran. The class given is biochemical, mouse. Set-up: FRAP pore-forming activity / FRAP pore-forming activity, average / p (FRAP-70k-p), Average: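 unitless ratio D/D0 relative to diffusion coefficient after Triton X-100 disruption of GUVs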. The procedure: (§1) Briefly, GUVs were incubated with the proteins of interest over a period of time (Fig. 2c), followed by photobleaching within individual GUVs. A series of fluorescent images were collected over time after the photobleaching and then analyzed to yield the diffusion coefficients of Fluor molecules (including FITC-labeled 70-kDa, and Alexa-647-labeled 10-kDa probes) using the theoretical approach detailed in the “Methods” section. As Fluor molecules are homogeneously dispersed in the solution (outside and inside of GUVs) before the incubation with BAX and activators, it is reasonable to expect that the larger the induced pore area on the surface of a GUV, the greater the diffusion coefficient. Thus, the diffusion coefficient is directly related to the pore-forming activity of activated BAX. As the pore-forming activity is proportional to the concentration of BAX[18], we fixed the total amount of added BAX in all of the measurements below (see the “Methods” section).
(§2) Full-length BAX and variants were prepared as previously described[18],[22],[35]. Mouse BAX was cloned into pTYB1 vector (New England Biolabs, Inc.), resulting pTYB1-BAX construct. The pTYB1-BAX construct encoding a fusion protein of BAX with chitin-binding peptide was separated by a self-cleavable intein tag to obtain a full-length BAX. Wild-type BAX has two native cysteine residues at 62 and 126. Cysteine-free construct (C62S/C126S) was used to prepare single-cysteine BAX variants for conjugating fluorescence probes (e.g., BAX136C in Fig. 1d). Point mutations of recombinant BAX were generated using a QuikChange mutagenesis kit. Proteins were expressed in E. coli (ER2566) strain (New England Biolabs, Inc.) and purified without detergent. Bacterial cultures were grown at 37 °C in LB medium containing 0.1 g/L ampicillin to reach an OD600 of 1.0. BAX expression was induced by addition of 0.3 mM IPTG at 30 °C for 6−8 h. The cells were harvested by centrifugation and resuspended in ice-cold lysis buffer (20 mM Tris–HCl, pH 7.0, 500 mM NaCl and 1 mM PMSF). The resuspended pellet was sonicated on ice for 30 min, followed by centrifugation at 12,800 × g for 50 min. […] The resins were incubated in a pre-equilibrated buffer (20 mM sodium phosphate, pH 8.0, 100 mM NaCl, 60 mM dithiothreitol (DTT)) for 48 h. Proteins were eluted from column and further purified by a SEC using a HiLoad 16/60 Superdex 75 column (GE Healthcare) pre-equilibrated in PB buffer (20 mM sodium phosphate, pH 7.4, 100 mM NaCl). Purified proteins were confirmed by SDS–PAGE with Coomassie blue staining. Protein concentration was determined using absorption spectroscopy at 280 nm.
(§3) All lipids used were purchased from Avanti Polar Lipids. […] Texas Red 1,2-dihexadecanoyl-sn-glycero-3-phosphoethanolamine (TR-DPPE) (Invitrogen) of 0.05% was added to the lipid mixture for virtualization of GUV[18],[26],[27]. GUVs were prepared with the gel-assisted swelling on a polyvinyl alcohol (PVA) gel[39]. A 5% (w/w) solution of PVA (MW 145,000) was prepared by stirring PVA in ddH2O while heating at 90 °C. PVA solution was spread on a microscope coverslip (18 × 18 mm, Matsunami, Japan) and then dried at 50 °C. Lipid mixture (1 mg/mL) dissolved in chloroform were spread on the dry PVA film and placed under vacuum for 30 min to evaporate the solvent. Lipids were rehydrated for 1 h in PB buffer. The resulting GUVs were transferred to an Eppendorf tube using blunt tips.
(§4) FRAP measurements were performed as described previously. […] All reactions were at room temperature and the final volume was 200 μL.

The subject of data set [4] is BAX. The data set is described as follows: FRAP-GUV pore-forming activity of BAX, 10-kDa F-dextran. The class given is biochemical, mouse. Set-up: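 unitless ratio D/D0 relative to diffusion coefficient after Triton X-100 disruption of GUVs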. The conditions noted are these: 10 kDa F-dextran. Here is the method: as §1, §2, §3, §4

Consider “S70E: less potent phosphomimetic mutant S70E of TM-truncated BCL-2”, for which the “Cytochrome c release, Average” value is 76.6421 in data set [1] (BAX+BimBH3 + 2uM BCL-2 protein), 24.3731 in data set [1] (BAX+BimBH3 + 4uM BCL-2 protein) and 15.7119 in data set [1] (BAX+BimBH3 + 6uM BCL-2 protein).

“WT: TM-truncated wild-type human BCL-2 (BCL-2-ΔTM, residues 1–217, C-terminal His6-tag)”: the “Cytochrome c release, Average” value was 77.3682 in data set [1] (BAX+BimBH3 + 2uM BCL-2 protein), 50.0022 in data set [1] (BAX+BimBH3 + 4uM BCL-2 protein) and 21.4104 in data set [1] (BAX+BimBH3 + 6uM BCL-2 protein). For the same molecule, the “susceptibility to trypsin proteolysis (in words)” value with trypsin is “susceptible to proteolysis and rapidly degraded to fragments”.

Consider “BimBH3-AL488: BimBH3 peptide labeled with Alexa Fluor 488 at C-terminal cysteine (FRET acceptor)”, for which the “molecular association with EEE compared with S70E or WT (in words)” value in data set [2] is reported as “associated with EEE-PB more potently than with S70E-PB or WT-PB”.

B1: EEE-PB: EEE labeled with Pacific Blue (FRET donor) (conjugate)
chain: MAHAGRTGYDNREIVMKYIHYKLSQRGYEWDAGDVGAAPPGAAPAPGIFSSQPGHTPHPAASRDPVAREEPLQTPAAPGAAAGPALEPVPPVVHLTLRQAGDDFSRRYRRDFAEMSSQLHLTPFTARGRFATVVEELFRDGVNWGRIVAFFEFGGVMCVESVNREMSPLVDNIALWMTEYLNRHLHTWIQDNGGWDAFVELYGPSMRPLFDFSWLSL
modifications: Pacific Blue (maleimide) on the native cysteine 158; left off: His6, C-terminal, state not stated
On to B1, for which the “pore-forming activity / effect on BAX-induced membrane pores on GUV (in words)” value in the data set on BAX [3] (10- and 70-kDa F-dextran, BAX 1 µM, BimBH3 2 µM, BCL-2 1 µM, ABT-199 30 µM, room temperature, Fig. 2c) is listed as “The ability of EEE to sequester BimBH3 is similar to that of EEE-PB”. Besides, the “FRAP pore-forming activity, average” value with BAX [3] (70 kDa F-dextran, mean of trials) came out at 0.000389; in the data set with BAX [4] (mean of trials), 0.001441. Further, the FRAP pore-forming activity in the data set on BAX [3] (70 kDa F-dextran, trial1) was determined as 0.00033; with BAX [3] (70 kDa F-dextran, trial2), 0.000165; with BAX [3] (70 kDa F-dextran, trial3), 0.000165; in the data set on BAX [3] (70 kDa F-dextran, trial4) it was 0.00033; in the data set on BAX [3] (70 kDa F-dextran, trial5) it was 0.00033; with BAX [3] (70 kDa F-dextran, trial6), 0.000165. In addition, the FRAP pore-forming activity is 0.00033 in the data set on BAX [3] (70 kDa F-dextran, trial7); 0.0006601 with BAX [3] (70 kDa F-dextran, trial8); 0.0008251 with BAX [3] (70 kDa F-dextran, trial9); 0.000495 in the data set with BAX [3] (70 kDa F-dextran, trial10); 0.000495 in the data set on BAX [3] (70 kDa F-dextran, trial11); 0.00033 in the data set with BAX [3] (70 kDa F-dextran, trial12). Besides, the FRAP pore-forming activity was found to be 0.00033 in the data set with BAX [3] (70 kDa F-dextran, trial13); 0.000495 in the data set on BAX [3] (70 kDa F-dextran, trial14); 0.0008772 in the data set on BAX [4] (trial1); 0.0007018 with BAX [4] (trial2); 0.0003509 in the data set on BAX [4] (trial3); 0.0008772 with BAX [4] (trial4). In addition, the FRAP pore-forming activity in the data set on BAX [4] (trial5) stood at 0.001228; with BAX [4] (trial6) it was 0.0007018; in the data set with BAX [4] (trial7), 0.001228; in the data set on BAX [4] (trial8), 0.002456; with BAX [4] (trial9), 0.002807; in the data set on BAX [4] (trial10), 0.001579. Moreover, the FRAP pore-forming activity turned out to be 0.002105 in the data set on BAX [4] (trial11), 0.001404 with BAX [4] (trial12), 0.001579 in the data set on BAX [4] (trial13) and 0.002281 in the data set with BAX [4] (trial14).
